From article PMC12332008, “Ribosome biogenesis in plants requires the nuclear envelope and mitochondria localized OPENER complex” (Nature Communications, 2025)
Like-named read-outs stand apart in the source and are kept apart here.

B1: OPNR (recombinant) (natural protein, Arabidopsis thaliana, UniProt Q6NPG7 1-195, looked up)
chain: MEAVIRKWQQKFRKGKEEMEKWEALQVRWVSLFRNASSIIQRLQEMQNHGSYGALRCLKGIEDAVVQQQMGQLESLLRSMKNVMEEFWGCVLTFEKLHRDGLQLREIESSKRRVEERIGVKPCITDCLEGLSILYDMHQSEYHLKSSILSVLSCLILKPSPGDLNALQYLVVDQPNIPKDEVQHIFDVIFAEEIK
notes: OPENER (OPNR), Arabidopsis thaliana, AT5G43822; printed molecular weight 23 kDa; also called OPENER; source: E. coli BL21(DE3), co-expressed with 6xHis-OAP1 and OAP2 from pACYCDuet-1, co-purified (Ni-NTA, Superdex200)

Tests used:
[1] = molecular target: T1, OAP1 (recombinant, 6xHis-tag removed) (Arabidopsis thaliana, UniProt F4K9I8 1-303); experiment: SEC; OPNR-OAP1-OAP2 complex after removal of the 6xHis-tag; Superdex200 16/600
T1 construct: OPENER ASSOCIATED PROTEIN 1 (OAP1), Arabidopsis thaliana, AT5G07950; printed molecular weight 34 kDa; not shown: 6xHis, N-terminal, cleaved
T1 sequence (looked up): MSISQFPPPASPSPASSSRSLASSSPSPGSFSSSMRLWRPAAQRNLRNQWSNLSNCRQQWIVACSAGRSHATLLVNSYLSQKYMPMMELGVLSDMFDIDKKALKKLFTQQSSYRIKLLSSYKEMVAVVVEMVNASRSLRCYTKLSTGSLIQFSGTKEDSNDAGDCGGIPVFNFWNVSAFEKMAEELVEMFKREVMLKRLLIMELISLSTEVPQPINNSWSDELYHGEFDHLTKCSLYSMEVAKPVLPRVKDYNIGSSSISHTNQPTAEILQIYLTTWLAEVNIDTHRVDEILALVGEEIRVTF

[2] = molecular target: 6xHis-OAP1 (Arabidopsis thaliana); experiment: co-purification of co-expressed proteins (Ni-NTA); 6xHis-OAP1, OAP2 and OPNR expressed together in E. coli BL21(DE3), purified on Ni-NTA resin by the His tag of OAP1; molar ratio from the gel

Molecule	stoichiometry N [1]	stoichiometry N [2]	stoichiometry N ([1]; both partners purified)
OAP2 (recombinant) (natural protein)	1	1	–
B1	–	1	1
